Data from patent publication US20210140973A1.

Tests used:
[1] = molecular target: human IgG4 purified from human serum (human); test: latex agglutination inhibition, IgG4-sensitized latex, antibody in R1; free human IgG4 in sample 0.0 mg/dL
[2] = molecular target: human IgG4 purified from human serum (human); test: latex agglutination inhibition, IgG4-sensitized latex, antibody in R1; free human IgG4 in sample 500 mg/dL
[3] = molecular target: human IgG4 purified from human serum (human); test: SPR (Biacore), IgG4 immobilized
[4] = molecular target: human IgG4 purified from human serum (human); test: latex agglutination inhibition, IgG4-sensitized latex, antibody in R1; free human IgG4 in sample 250 mg/dL
[5] = molecular target: human IgG4 purified from human serum (human); test: latex agglutination inhibition, IgG4-sensitized latex, antibody in R1; free human IgG4 in sample 31.3 mg/dL
[6] = molecular target: human IgG4 purified from human serum (human); test: SPR (Biacore), IgG4 immobilized on chip by amino coupling, antibody as analyte
[7] = molecular target: human IgG4 purified from human serum (human); test: latex agglutination inhibition, IgG4-sensitized latex, antibody in R1; free human IgG4 in sample 1000 mg/dL
[8] = molecular target: human IgG4 purified from human serum (human); test: latex agglutination inhibition, IgG4-sensitized latex, antibody in R1; free human IgG4 in sample 125 mg/dL

Chain of human IgG4 purified from human serum (human) (constant, as listed by the source limits assumed): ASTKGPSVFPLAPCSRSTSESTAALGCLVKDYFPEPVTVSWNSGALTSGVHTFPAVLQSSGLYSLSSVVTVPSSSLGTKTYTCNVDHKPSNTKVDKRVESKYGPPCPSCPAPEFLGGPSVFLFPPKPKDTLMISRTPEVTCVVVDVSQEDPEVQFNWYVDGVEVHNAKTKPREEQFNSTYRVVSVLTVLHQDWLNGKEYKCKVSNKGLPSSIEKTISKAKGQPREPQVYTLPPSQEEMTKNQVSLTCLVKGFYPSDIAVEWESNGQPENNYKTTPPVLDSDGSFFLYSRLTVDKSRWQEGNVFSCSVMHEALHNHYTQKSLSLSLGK

ratio of binding rate constant ka to those of the MaI4-08 and MaI4-09-produced antibodies [3]: < 0.01 fold
Kd [6]: 408 nM
koff [6]: 0.000681 s⁻¹
kon [6]: 1670 M⁻¹ s⁻¹
Substance: commercially available antibody HP6025 (Millipore Corporation)
Absorbance change amount in 800 nm [1]: 0.003
Absorbance change amount in 800 nm [2]: 0.0031
Absorbance change amount in 800 nm [4]: 0.0034
Absorbance change amount in 800 nm [5]: 0.0036
Absorbance change amount in 800 nm [7]: 0.003
Absorbance change amount in 800 nm [8]: 0.0033
